Molecular target: T1, BRIL-KOR crystallization construct (human kappa-opioid receptor, residues 1-53 replaced by BRIL, C-terminal … (Homo sapiens, I135L | S324C))
T1 chain: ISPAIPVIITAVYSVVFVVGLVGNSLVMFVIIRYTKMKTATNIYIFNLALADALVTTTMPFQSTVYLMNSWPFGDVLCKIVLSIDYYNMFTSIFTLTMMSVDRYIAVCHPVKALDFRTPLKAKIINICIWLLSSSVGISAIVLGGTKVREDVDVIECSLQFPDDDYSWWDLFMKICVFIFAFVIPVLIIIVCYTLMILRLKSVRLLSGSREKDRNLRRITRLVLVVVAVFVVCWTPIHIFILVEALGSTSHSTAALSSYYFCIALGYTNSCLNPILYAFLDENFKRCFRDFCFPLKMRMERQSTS
Assay: cell-based or functional assay

B1: Nb39 (active-state stabilizing nanobody) (VHH)
VHH: QVQLVESGGGLVRPGGSLRLSCVDSERTSYPMGWFRRAPGKEREFVASITWSGIDPTYADSVADRFTTSRDVANNTLYLQMNSLKHEDTAVYYCAARAPVGQSSSPYDYDYWGQGTQVTVS
increase of the binding affinity of nalfurafine in radioligand competition binding on KOR membranes in the presence of Nb39: 40 fold

Source: PMC10008561, “Molecular mechanism of biased signaling at the kappa opioid receptor” (Nature Communications, 2023)
